Test results published in US20090028842A1, “Dekkera/Brettanomyces Cytosine Deaminases And Their Use” (ZGene A/S, priority 2005, published 2009).

How the values were obtained:
[1] = CD activities in crude extracts of BL21 cells transformed with CD genes; assay type: biochemical; conditions: cytosine 500 uM, triplicates, mean with standard deviation
Protocol: Bacteria or cell lines were grown as described, harvested and stored at −80° C. until activity testing. Cells were submitted to brief sonication in extraction buffer (50 mM Tris/HCl pH 7.5, 1 mM DTT, 10% (v/v) glycerol, 1% (v/v) Triton X-100, protease inhibitor cocktail Complete™ from Roche Diagnostics). Cytosine deaminase activities were determined spectrophotometrically by monitoring the absorbance decrease at 286 nm (Δε286=−0.68 mM^−1 cm^−1) resulting from the deamination of cytosine to uracil. Assays were initiated by the addition of CD to 0.5 mM cytosine in 50 mM Tris-HCL at pH 7.5 and 30° C. and followed for 150 sec. One unit of CD was defined to catalyze the formation of 1 μmol of uracil per min. Dual beam recording ZEIS spectrophotometer, thermostated at 30° C., was used for the assays.
To better characterize D. bruxellensis CD over expression of the protein in bacteria was done. In addition to D. bruxellensis CD, homologous genes from S. cerevisiae was also amplified from total genomic DNA and cloned as histidin tagged construct into pET100 bacterial expression vector. The plasmids were transformed into E. coli BL21 strain and protein expression was induced by IPTG for 8 hours. After harvesting, cell extracts were spectrophotometrically measured for cytosine and 5-FC deamination. All yeast CDs tested were functional when expressed in bacteria (Table 2).

[2] = CD activities with purified his-tagged proteins; assay type: biochemical; conditions: purified his-tagged protein, 37° C., cytosine 500 μM, triplicates, mean with standard deviation
Protocol: For recombinant protein expression, E. coli cells were grown to a density of A600 nm=0.5-0.6 in LB medium supplemented with 100 μg/ml ampicillin, and the expression was induced with 10 μM IPTG for 8 h at 25° C. The cells were harvested by centrifugation, and the pellet was resuspended in 25 ml ice-cold binding buffer A […] (50 mM sodium phosphate pH 8.0; 300 mM NaCl; 10% glycerol; 25 mM imidazole) containing protease inhibitor cocktail (Complete™-EDTA free from Roche Diagnostics). The cells were homogenized using a French Press, subjected to centrifugation at 12,000×g for 30 minutes (4° C.), filtered through a […] Whatman glass microfiber filter and a […] cellulose acetate filter, and loaded onto a 5 ml Ni^2+-NTA column (Qiagen). […]
Bacteria or cell lines were grown as described, harvested and stored at −80° C. until activity testing. […] Cytosine deaminase activities were determined spectrophotometrically by monitoring the absorbance decrease at 286 nm (Δε286=−0.68 mM^−1 cm^−1) resulting from the deamination of cytosine to uracil. […]
To characterize the substrate specificities of yeast CDs, purified proteins were measured at 37° C. and fixed cytosine concentration and assays was performed as described in Example 1 (Enzyme assays) (Table 3).

[3] = assay type: physicochemical; conditions: storage at 50° C., his-tagged enzyme
Protocol: Purified and his-tagged CD from D. bruxellensis and S. cerevisiae CD were assayed after different periods of storage at 50° C. and 37° C. (FIGS. 8a and 8b). Indeed, D. bruxellensis CD was extremely stable at 50° C. when compared to S. cerevisiae CD which lost all activity after only 4 minutes. Half life for D. bruxellensis CD at 50° C. was app. 3 hours (FIG. 8a). […] It should be observed that the temperature stability of the proteins without his-tags could be different.

B1: Sc CD (PZG738): cytosine deaminase from Saccharomyces cerevisiae (FCY1 gene), recombinant his-tagged protein in pET100 (protein, UniProt Q12178 1-158, looked up)
Cytosine deaminase: MVTGGMASKWDQKGMDIAYEEAALGYKEGGVPIGGCLINNKDGSVLGRGHNMRFQKGSATLHGEISTLENCGRLEGKVYKDTTLYTTLSPCDMCTGAIIMYGIPRCVVGENVNFKSKGEKYLQTRGHEVVVVDDERCKKIMKQFIDERPQDWFEDIGE
modifications: His tag
notes: cytosine deaminase from Saccharomyces cerevisiae (FCY1 gene), recombinant his-tagged protein in pET100
- CD activity, Cytosine [1]: 40.69 ± 0.56
- CD activity, Cytosine [2]: 888.4 ± 4.8 U/mg/min
- Time after which all activity was lost [3]: 4 min
